Source: article PMC11315836

Target: Recombinant hG-CSFR (granulocyte colony stimulating factor receptor) (human) (UniProt Q99062)
Experiment: SPR

UniProt Q99062, sequence (Q99062 25-836): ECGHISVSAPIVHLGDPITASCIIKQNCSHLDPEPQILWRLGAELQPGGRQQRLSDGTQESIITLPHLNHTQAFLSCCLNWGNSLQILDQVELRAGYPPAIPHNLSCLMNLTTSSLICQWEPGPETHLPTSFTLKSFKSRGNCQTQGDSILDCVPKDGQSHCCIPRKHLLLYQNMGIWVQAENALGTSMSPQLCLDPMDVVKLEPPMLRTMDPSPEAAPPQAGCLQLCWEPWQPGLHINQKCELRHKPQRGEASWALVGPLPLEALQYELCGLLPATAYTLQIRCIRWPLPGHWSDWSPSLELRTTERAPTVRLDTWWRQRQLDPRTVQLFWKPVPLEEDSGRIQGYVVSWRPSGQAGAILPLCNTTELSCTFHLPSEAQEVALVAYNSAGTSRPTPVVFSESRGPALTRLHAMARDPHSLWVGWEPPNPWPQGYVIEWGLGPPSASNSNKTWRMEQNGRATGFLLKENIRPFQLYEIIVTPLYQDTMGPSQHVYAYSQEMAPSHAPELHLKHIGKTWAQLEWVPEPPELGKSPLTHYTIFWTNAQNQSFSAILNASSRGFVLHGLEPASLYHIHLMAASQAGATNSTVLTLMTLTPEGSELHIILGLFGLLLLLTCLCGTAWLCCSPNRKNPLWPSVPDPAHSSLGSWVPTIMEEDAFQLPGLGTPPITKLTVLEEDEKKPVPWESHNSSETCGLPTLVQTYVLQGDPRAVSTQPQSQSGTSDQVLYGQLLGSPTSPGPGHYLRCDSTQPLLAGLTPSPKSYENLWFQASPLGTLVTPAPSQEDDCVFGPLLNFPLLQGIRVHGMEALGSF

Kd: 0.097 nM
Substance: pegfilgrastim (Neulasta), reference product (from UniProt P09919-2 31-204) (ligand)
